{"source": "the Immune Epitope Database (IEDB)", "key": {"[1]": {"molecular_target": "HLA-B*57:01", "experiment": "IEDB peptide-MHC binding, purified MHC/competitive/radioactivity; filed as Kd, often an IC50 or EC50 that approximates it; ≥ and ≤ were set here for values at or beyond the usual limits of such assays"}, "[2]": {"molecular_target": "HLA-B*15:01", "experiment": "IEDB peptide-MHC binding, purified MHC/competitive/radioactivity; filed as Kd, often an IC50 or EC50 that approximates it; ≥ and ≤ were set here for values at or beyond the usual limits of such assays"}, "[3]": {"molecular_target": "HLA-B*53:01", "experiment": "IEDB peptide-MHC binding, purified MHC/competitive/radioactivity; filed as Kd, often an IC50 or EC50 that approximates it; ≥ and ≤ were set here for values at or beyond the usual limits of such assays"}, "[4]": {"molecular_target": "HLA-A*24:02", "experiment": "IEDB peptide-MHC binding, purified MHC/competitive/radioactivity; filed as Kd, often an IC50 or EC50 that approximates it; ≥ and ≤ were set here for values at or beyond the usual limits of such assays", "details": "source organism: Dengue virus 1 Brazil/97-11/1997"}, "[5]": {"molecular_target": "HLA-A*23:01", "experiment": "IEDB peptide-MHC binding, purified MHC/competitive/radioactivity; filed as Kd, often an IC50 or EC50 that approximates it; ≥ and ≤ were set here for values at or beyond the usual limits of such assays", "details": "source organism: Dengue virus 1 Brazil/97-11/1997"}, "[6]": {"molecular_target": "HLA-A*01:01", "experiment": "IEDB peptide-MHC binding, purified MHC/competitive/radioactivity; filed as Kd, often an IC50 or EC50 that approximates it; ≥ and ≤ were set here for values at or beyond the usual limits of such assays", "details": "source organism: Dengue virus 3 Martinique/1243/1999"}, "[7]": {"molecular_target": "HLA-A*30:02", "experiment": "IEDB peptide-MHC binding, purified MHC/competitive/radioactivity; filed as Kd, often an IC50 or EC50 that approximates it; ≥ and ≤ were set here for values at or beyond the usual limits of such assays", "details": "source organism: Dengue virus 3 Martinique/1243/1999"}, "[8]": {"molecular_target": "HLA-B*58:01", "experiment": "IEDB peptide-MHC binding, purified MHC/competitive/radioactivity; filed as Kd, often an IC50 or EC50 that approximates it; ≥ and ≤ were set here for values at or beyond the usual limits of such assays"}, "[9]": {"molecular_target": "HLA-B*35:01", "experiment": "IEDB peptide-MHC binding, purified MHC/competitive/radioactivity; filed as Kd, often an IC50 or EC50 that approximates it; ≥ and ≤ were set here for values at or beyond the usual limits of such assays", "details": "source organism: Dengue virus 2 Jamaica/1409/1983"}, "[10]": {"molecular_target": "HLA-A*32:01", "experiment": "IEDB peptide-MHC binding, purified MHC/competitive/radioactivity; filed as Kd, often an IC50 or EC50 that approximates it; ≥ and ≤ were set here for values at or beyond the usual limits of such assays"}, "[11]": {"molecular_target": "HLA-A*02:01", "experiment": "IEDB peptide-MHC binding, purified MHC/competitive/fluorescence; ≥ and ≤ were set here for values at or beyond the usual limits of such assays", "details": "source organism: Variola virus"}, "[12]": {"molecular_target": "HLA-A*24:02", "experiment": "IEDB peptide-MHC binding, purified MHC/competitive/fluorescence; ≥ and ≤ were set here for values at or beyond the usual limits of such assays"}, "[13]": {"molecular_target": "HLA-B*57:01", "experiment": "IEDB peptide-MHC binding, purified MHC/direct/fluorescence; filed as Kd, often an IC50 or EC50 that approximates it; ≥ and ≤ were set here for values at or beyond the usual limits of such assays"}, "[14]": {"molecular_target": "HLA-B*58:01", "experiment": "IEDB peptide-MHC binding, purified MHC/direct/fluorescence; filed as Kd, often an IC50 or EC50 that approximates it; ≥ and ≤ were set here for values at or beyond the usual limits of such assays"}, "[15]": {"molecular_target": "HLA-B*15:17", "experiment": "IEDB peptide-MHC binding, purified MHC/direct/fluorescence; filed as Kd, often an IC50 or EC50 that approximates it; ≥ and ≤ were set here for values at or beyond the usual limits of such assays"}, "[16]": {"molecular_target": "HLA-B*07:02", "experiment": "IEDB peptide-MHC binding, purified MHC/competitive/radioactivity; filed as Kd, often an IC50 or EC50 that approximates it; ≥ and ≤ were set here for values at or beyond the usual limits of such assays", "details": "source organism: Dengue virus 2 Jamaica/1409/1983"}, "[17]": {"molecular_target": "HLA-A*68:02", "experiment": "IEDB peptide-MHC binding, purified MHC/competitive/radioactivity; filed as Kd, often an IC50 or EC50 that approximates it; ≥ and ≤ were set here for values at or beyond the usual limits of such assays", "details": "source organism: Dengue virus 2 Jamaica/1409/1983"}, "[18]": {"molecular_target": "HLA-A*11:01", "experiment": "IEDB peptide-MHC binding, purified MHC/competitive/fluorescence; ≥ and ≤ were set here for values at or beyond the usual limits of such assays", "details": "source organism: Sudan ebolavirus"}, "[19]": {"details": "source organism: Dengue virus 1 Brazil/97-11/1997"}, "[20]": {"details": "source organism: Dengue virus 4 Philippines/H241/1956"}, "[21]": {"details": "source organism: Dengue virus 3 Martinique/1243/1999"}, "[22]": {"details": "source organism: Dengue virus 4 Dominica/814669/1981"}, "[23]": {"details": "source organism: Dengue virus 2 Jamaica/1409/1983"}, "[24]": {"details": "source organism: Vaccinia virus WR"}, "[25]": {"details": "source organism: Burkholderia mallei"}, "[26]": {"details": "source organism: Marburg virus - Musoke, Kenya, 1980"}, "[27]": {"details": "source organism: Vibrio parahaemolyticus"}}, "data": [{"sequence": "LGFMNEDHW", "values": [{"measurement": "Kd", "setting": "[1]; [19]", "value": 26.2, "unit": "nM"}]}, {"sequence": "LGKAVHQVF", "values": [{"measurement": "Kd", "setting": "[2]; [20]", "value": 477, "unit": "nM"}]}, {"sequence": "LMLLPTALAF", "values": [{"measurement": "Kd", "setting": "[2]; [19]", "value": 0.82, "unit": "nM"}, {"measurement": "Kd", "setting": "[3]; [19]", "value": 15600, "unit": "nM"}, {"measurement": "Kd", "setting": "[4]", "value": 4450, "unit": "nM"}, {"measurement": "Kd", "setting": "[5]", "value": 72.9, "unit": "nM"}]}, {"sequence": "LSRNSTHEMY", "values": [{"measurement": "Kd", "setting": "[2]; [21]", "value": 48.2, "unit": "nM"}, {"measurement": "Kd", "setting": "[6]", "value": 291, "unit": "nM"}, {"measurement": "Kd", "setting": "[7]", "value": 32.2, "unit": "nM"}]}, {"sequence": "LTSTWVMYGT", "values": [{"measurement": "Kd", "setting": "[1]; [22]", "value": 2540, "unit": "nM"}, {"measurement": "Kd", "setting": "[8]; [22]", "value": 663, "unit": "nM"}]}, {"sequence": "MAILGDTAW", "values": [{"measurement": "Kd", "setting": "[1]; [23]", "value": 22.6, "unit": "nM"}, {"measurement": "Kd", "setting": "[3]; [23]", "value": 9.79, "unit": "nM"}, {"measurement": "Kd", "setting": "[8]; [23]", "value": 3.34, "unit": "nM"}, {"measurement": "Kd", "setting": "[9]", "value": 33.1, "unit": "nM"}]}, {"sequence": "MIKNLTQLF", "values": [{"measurement": "Kd", "setting": "[2]; source organism: Vaccinia virus Copenhagen", "value": 5.71, "unit": "nM"}]}, {"sequence": "MLAVWNRVW", "values": [{"measurement": "Kd", "setting": "[1]; [23]", "value": 20.6, "unit": "nM"}, {"measurement": "Kd", "setting": "[8]; [23]", "value": 113, "unit": "nM"}]}, {"sequence": "MTTTANWLW", "values": [{"measurement": "Kd", "setting": "[1]; [20]", "value": 1.62, "unit": "nM"}, {"measurement": "Kd", "setting": "[3]; [20]", "value": 2.5, "unit": "nM"}, {"measurement": "Kd", "setting": "[8]; [20]", "value": 1.05, "unit": "nM"}]}, {"sequence": "NIREIEEHM", "values": [{"measurement": "Kd", "setting": "[2]; [24]", "value": 234, "unit": "nM"}]}, {"sequence": "PATLFVWYFW", "values": [{"measurement": "Kd", "setting": "[1]; [19]", "value": 169, "unit": "nM"}, {"measurement": "Kd", "setting": "[10]; [19]", "value": 15500, "unit": "nM"}, {"measurement": "Kd", "setting": "[8]; [19]", "value": 9290, "unit": "nM"}]}, {"sequence": "PVVLTGGTG", "values": [{"measurement": "IC50", "setting": "[11]", "value": "≥ 167000", "unit": "nM"}, {"measurement": "IC50", "setting": "[12]; source organism: Variola virus", "value": 69800, "unit": "nM"}]}, {"sequence": "QSSSMRKTDW", "values": [{"measurement": "Kd", "setting": "[1]; [21]", "value": 151, "unit": "nM"}, {"measurement": "Kd", "setting": "[8]; [21]", "value": 75.8, "unit": "nM"}]}, {"sequence": "RAMDTYHRW", "values": [{"measurement": "Kd", "setting": "[13]; [25]", "value": 48.8, "unit": "nM"}, {"measurement": "Kd", "setting": "[14]; [25]", "value": 10.5, "unit": "nM"}, {"measurement": "Kd", "setting": "[15]; [25]", "value": 2.1, "unit": "nM"}]}, {"sequence": "RSLIGNEEF", "values": [{"measurement": "Kd", "setting": "[10]; [21]", "value": 4650, "unit": "nM"}, {"measurement": "Kd", "setting": "[8]; [21]", "value": 15.4, "unit": "nM"}]}, {"sequence": "RTSWALCEAL", "values": [{"measurement": "Kd", "setting": "[1]; [21]", "value": 1710, "unit": "nM"}]}, {"sequence": "RVIGYILFF", "values": [{"measurement": "Kd", "setting": "[14]; [26]", "value": 2040, "unit": "nM"}, {"measurement": "Kd", "setting": "[15]; [26]", "value": 129, "unit": "nM"}]}, {"sequence": "RVIQLSRKTF", "values": [{"measurement": "Kd", "setting": "[2]; [19]", "value": 45.2, "unit": "nM"}, {"measurement": "Kd", "setting": "[5]", "value": 3290, "unit": "nM"}]}, {"sequence": "RVMVMVGATM", "values": [{"measurement": "Kd", "setting": "[2]; [23]", "value": 2.14, "unit": "nM"}, {"measurement": "Kd", "setting": "[16]", "value": 61.5, "unit": "nM"}]}, {"sequence": "SASSMVNGVV", "values": [{"measurement": "Kd", "setting": "[1]; [23]", "value": 227, "unit": "nM"}, {"measurement": "Kd", "setting": "[8]; [23]", "value": 2040, "unit": "nM"}, {"measurement": "Kd", "setting": "[17]", "value": 10.2, "unit": "nM"}]}, {"sequence": "SINNIDPHF", "values": [{"measurement": "Kd", "setting": "[2]; [24]", "value": 12, "unit": "nM"}]}, {"sequence": "STTLFKIDN", "values": [{"measurement": "IC50", "setting": "[18]", "value": "≥ 146000", "unit": "nM"}]}, {"sequence": "TLAAMPEEE", "values": [{"measurement": "IC50", "setting": "[12]; source organism: Zaire ebolavirus", "value": 10000, "unit": "nM"}]}, {"sequence": "TQVGTLALSL", "values": [{"measurement": "Kd", "setting": "[2]; [20]", "value": 57.2, "unit": "nM"}]}, {"sequence": "VGVNTQETI", "values": [{"measurement": "IC50", "setting": "[12]; source organism: Sudan ebolavirus", "value": 7560, "unit": "nM"}]}, {"sequence": "VSSVNTTSKM", "values": [{"measurement": "Kd", "setting": "[1]; [20]", "value": 12100, "unit": "nM"}, {"measurement": "Kd", "setting": "[8]; [20]", "value": 1450, "unit": "nM"}]}, {"sequence": "YGVKNLFDW", "values": [{"measurement": "Kd", "setting": "[13]; [26]", "value": 38.3, "unit": "nM"}, {"measurement": "Kd", "setting": "[14]; [26]", "value": "≥ 5000", "unit": "nM"}, {"measurement": "Kd", "setting": "[15]; [26]", "value": 155, "unit": "nM"}]}, {"sequence": "YSLGQGPVW", "values": [{"measurement": "Kd", "setting": "[14]; [27]", "value": 2.6, "unit": "nM"}, {"measurement": "Kd", "setting": "[15]; [27]", "value": "≤ 1", "unit": "nM"}]}]}
